Measured values taken from patent US20030082643A1 (Bristol-Myers Squibb, published 2003).

Tests used:
[1] = target: T1, soluble recombinant CD89 (human, UniProt P24071 22-227, limits assumed); test: ELISA
T1 construct: Soluble recombinant CD89, coated on ELISA plates, immobilised on BIAcore chips or in solution; also called sCD89; recombinant soluble CD89 antigen
Description: Solid-phase ELISA based assays were employed in the binding studies. Briefly, soluble recombinant CD89 in PBS was coated onto 96-well microtiter plates (1 μg/ml) and incubated overnight at room temperature. The plates were then washed with PBS-0.2%Tween-20 (PBST) and blocked with chicken serum albumin in PBST for 1 hour at room temperature. Supernatants from the anti-CD89 producing hybridomas or purified antibody (in PBS) were added to the wells and incubated for 2 hours at room temperature. The plates were washed with PBST as above and then incubated with 50 μl of HRP-conjugated goat-anti-human for 1 hour at room temperature. After washing, 100 μl of ABTS (150 mg 2,2′-azino-bis (3-ethylbenzthiazoline-6-sulfonic acid in 500 ml of 0.1 M citric acid, pH 4.35)/H₂O₂ (10 μl 30% H₂O₂ per 10 ml of ABTS solution) chromagen/substrate solution was added to each well and the samples read with a microplate reader at a wavelength of 405 nm.
Hybridomas which produced human IgG that bound CD89 were further characterized for isotype using ELISA (Human Kappa) (same protocol described above). […] Purified antibodies were extensively dialyzed against 0.3 M sodium carbonate buffer, pH 9.5, for labeling with […] (FITC). […]

[2] = target: T2, human CD89 expressed on cells (human, UniProt P24071 22-287); test: flow cytometry on 2a1.6/CD89 cells, human PMNL and PMNL of human-CD89 transgenic mice
T2 construct: whole, on cells; also called FcalphaRI; 2a1.6/CD89 cells
T2 sequence (P24071 22-287): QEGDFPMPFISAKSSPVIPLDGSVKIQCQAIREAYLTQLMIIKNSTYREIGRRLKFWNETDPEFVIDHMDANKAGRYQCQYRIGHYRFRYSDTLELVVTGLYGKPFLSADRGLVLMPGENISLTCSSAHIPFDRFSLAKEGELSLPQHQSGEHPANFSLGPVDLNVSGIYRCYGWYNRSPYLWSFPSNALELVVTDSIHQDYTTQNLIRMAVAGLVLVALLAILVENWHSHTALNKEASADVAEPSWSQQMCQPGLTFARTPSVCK

T1 sequence (P24071 22-227 limits assumed): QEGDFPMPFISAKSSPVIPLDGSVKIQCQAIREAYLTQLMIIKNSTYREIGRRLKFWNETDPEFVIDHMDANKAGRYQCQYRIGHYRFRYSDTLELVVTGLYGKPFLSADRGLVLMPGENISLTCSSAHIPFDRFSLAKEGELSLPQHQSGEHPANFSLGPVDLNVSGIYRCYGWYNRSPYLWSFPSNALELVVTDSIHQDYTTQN

binding result [1]: binds
binding result [2]: binds
B1: human monoclonal antibody (HuMAb) 8.2 (antibody, V domains shown)
VH: QVQLVESGGGVVQPGRSLRLSCAASGFTFSSYAMHWVRQAPGKGLEWVAVISYDGRNKDYADSVKGRFTISRDNSKNTLYLQMNSLRAEDTAVHYCARLDWGYDAFDIWGQGTMVTVSS
VL: not shown
notes: Human IgG1 kappa from hybridoma; also called 8D2
